According to US20080139477:

Molecular target: Flag-tagged collagen type III fusion protein (Flag-helix-C-tel-C-pro) expressed from YEpFlagCOLIII1.6 kb (UniProt P02461)
Chain of UniProt P02461 (P02461 other isoform, or with tags, fused parts or gaps): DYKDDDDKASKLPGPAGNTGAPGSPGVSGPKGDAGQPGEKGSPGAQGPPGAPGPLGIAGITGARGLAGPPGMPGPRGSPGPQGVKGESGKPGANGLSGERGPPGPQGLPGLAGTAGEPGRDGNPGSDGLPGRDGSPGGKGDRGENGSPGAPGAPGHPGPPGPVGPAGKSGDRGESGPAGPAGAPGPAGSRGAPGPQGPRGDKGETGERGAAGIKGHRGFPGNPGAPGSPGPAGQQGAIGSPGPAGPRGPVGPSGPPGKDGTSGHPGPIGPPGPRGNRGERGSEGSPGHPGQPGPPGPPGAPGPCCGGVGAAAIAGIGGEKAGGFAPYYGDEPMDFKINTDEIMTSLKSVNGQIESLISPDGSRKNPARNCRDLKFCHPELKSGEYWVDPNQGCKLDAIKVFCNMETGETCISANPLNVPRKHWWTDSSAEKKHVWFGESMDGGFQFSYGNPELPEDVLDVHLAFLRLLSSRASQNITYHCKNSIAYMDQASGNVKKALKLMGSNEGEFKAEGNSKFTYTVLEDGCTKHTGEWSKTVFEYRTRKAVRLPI

Substance: prolyl-4-hydroxylase (P4H, α2β2) expressed from pYEUra3.2.12β#39α#5
- hydroxyproline by amino acid analysis of the 60 kDa band: Amino acid analysis revealed the presence of hydroxyproline in this material from co-transformants ... after induction with 0.2% galactose but no hydroxyproline was detected with protein from control samples
